Test results from patent US20150017657A1, “ASSAY AND METHOD FOR IDENTIFYING COMPOUNDS THAT INHIBIT EXCITOTOXIC SIGNALS” (THE UNIVERSITY OF SYDNEY, priority 2011, published 2015).
No end group written: not given here.

Target: T1, Tau protein bound to Fyn protein (N-GFP-Fyn / C-GFP-Tau) (Homo sapiens, UniProt P06241)
T1 construct: A nucleic acid encoding amino acids 83-145 of human Fyn was cloned into the N-GFP-pLVX vector; N-GFP (GFP aa 1-158) with GGSG linker and XbaI-encoded SR; expressed in transfected cells; host or cells: COS-7 cells, lentiviral pLVX constructs, stably expressed
Assay: split-GFP reassembly assay of Tau/Fyn binding in transfected COS-7 cells
Format: cell-based
Details: 200 nM peptide, 1 hour at 37 degree Celsius; COS-7 cells expressing N-GFP-Fyn and N-terminal C-GFP-Tau; plate reader or fluorescence microscope (FIG. 5)
Description: Lentiviruses containing either combination of constructs, i.e. N-terminal C-GFP fused to Tau and N-GFP fused to Fyn, or C-terminal C-GFP fused to Tau and N-GFP fused to Fyn, were then generated using standard protocols (e.g. Krupka et al., Plasmid, 2010, 63(3):155-60) and stably expressed in COS-7 cells.
However, transfection of constructs encoding N-terminal C-GFP fused to Tau and N-GFP fused to Fyn did result in green fluorescing cells (FIG. 5).
Cells generated by the methods described in Example 1 were grown till confluent in 96-well plates and then the fluorescence was measured in a 96-well plate reader (Omega, BMG) or by via fluorescence microscope. The cells were then incubated with 200 nM of the Tat-7PXXP peptide for 1 hour at 37 degree Celsius. The fluorescence was again measured in a 96-well plate reader (Omega, BMG) or via a fluorescence microscope.

T1 sequence (P06241 83-145): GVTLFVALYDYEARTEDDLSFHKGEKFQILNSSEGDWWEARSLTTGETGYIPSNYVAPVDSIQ

YGRKKRRQRRRTPPKSPSS [Tat-7PXXP]
fluorescence of the transfected cells: negligible
